Source: the supplement of paper PMC9732359
± gives the uncertainty stated by the source.

Assay: protein stability index of a GFP-peptide fusion (yeast GPS) (PSI 1-4); higher = more stable; sorted into four equal gates, so the index is relative within each strain
How it was run: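 Tiled yeast protein peptides of 17 residues were each joined downstream of GFP, on plasmids that also express Cherry. The pooled library was maintained in yeast, and mid-log cultures in leucine-free medium were sorted into four equal gates on the GFP/Cherry ratio. Plasmids from every gate were amplified by PCR and sequenced on Illumina, with barcodes linking reads to strains. The protein stability index of a peptide is its gate-number-weighted read frequency summed over the gates.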

## TKENGDFTLPEDFAPLL [PRP8]
pdr5∆
  protein stability index: 2.78 ± 0.18
ubr1∆
  protein stability index: 3.2 ± 0.1

## NNNNTNTQPSASGFGFG [YGR119C/NUP57]
doa10∆
  protein stability index: 3.22 ± 0.081
pdr5∆
  protein stability index: 2.28 ± 0.059
san1∆
  protein stability index: 2.51 ± 0.062
ubr1∆
  protein stability index: 2.89 ± 0.036

## TYLNEVLEKDAAIVKKY [YGR119C/NUP57]
doa10∆
  protein stability index: 3.27 ± 0.11
pdr5∆
  protein stability index: 3.37 ± 0.093
san1∆
  protein stability index: 2.99 ± 0.076
ubr1∆
  protein stability index: 3.08 ± 0.069

## KDRFDIDEKSQFVETIV [RPN2]
doa10∆
  protein stability index: 2.15 ± 0.05
pdr5∆
  protein stability index: 2.48 ± 0.069
san1∆
  protein stability index: 1.93 ± 0.066
ubr1∆
  protein stability index: 2.17 ± 0.059

## ISSLIGGFEYFLQPLLL [NUT1]
doa10∆
  protein stability index: 1.21 ± 0.058
pdr5∆
  protein stability index: 1.27 ± 0.08
san1∆
  protein stability index: 1.33 ± 0.16
ubr1∆
  protein stability index: 1.38 ± 0.19

## AWGALITTFVKRSTVPL [YML103C/NUP188]
doa10∆
  protein stability index: 2.46 ± 0.07
pdr5∆
  protein stability index: 2.88 ± 0.072
san1∆
  protein stability index: 2.49 ± 0.076
ubr1∆
  protein stability index: 2.33 ± 0.12

## AFHTAVLRLNAIPLLKV [NUT1]
doa10∆
  protein stability index: 1.94 ± 0.059
pdr5∆
  protein stability index: 2.43 ± 0.053
san1∆
  protein stability index: 2.35 ± 0.07
ubr1∆
  protein stability index: 1.99 ± 0.05

## AVSEKAGHQTSAESWGT [RPL4A]
doa10∆
  protein stability index: 2.24 ± 0.086
pdr5∆
  protein stability index: 2.03 ± 0.1
san1∆
  protein stability index: 1.71 ± 0.11
ubr1∆
  protein stability index: 1.86 ± 0.088

## EVAKKRSRKTVKAQRPI [RPL24A]
doa10∆
  protein stability index: 3.12 ± 0.097
pdr5∆
  protein stability index: 3.29 ± 0.11
san1∆
  protein stability index: 3.18 ± 0.15
ubr1∆
  protein stability index: 3.17 ± 0.16

## PVDITMMENYQNISPVY [PRP8]
doa10∆
  protein stability index: 2.28 ± 0.049
pdr5∆
  protein stability index: 1.99 ± 0.06
san1∆
  protein stability index: 2.2 ± 0.071
ubr1∆
  protein stability index: 2.06 ± 0.038

## IETLDPALIRPGRIDRK [RPT2]
doa10∆
  protein stability index: 2.53 ± 0.26
pdr5∆
  protein stability index: 3.18 ± 0.19
san1∆
  protein stability index: 2.88 ± 0.24
ubr1∆
  protein stability index: 3.02 ± 0.2

## SRGFEVMYNGHTGKKLM [RPB2]
doa10∆
  protein stability index: 1.97 ± 0.12
pdr5∆
  protein stability index: 3.33 ± 0.25
san1∆
  protein stability index: 2.71 ± 0.13

## YHLLNYDPIKRIDAFNA [SSN3]
doa10∆
  protein stability index: 2.33 ± 0.065
pdr5∆
  protein stability index: 1.77 ± 0.04
san1∆
  protein stability index: 1.6 ± 0.074
ubr1∆
  protein stability index: 1.73 ± 0.031

## VTKDTKKYSSKNKYGEI [SRP68]
doa10∆
  protein stability index: 2.82 ± 0.11
pdr5∆
  protein stability index: 2.66 ± 0.099
san1∆
  protein stability index: 2.52 ± 0.086
ubr1∆
  protein stability index: 2.77 ± 0.068

## IVFVHSRKETSRTATWL [BRR2]
doa10∆
  protein stability index: 2.53 ± 0.11
pdr5∆
  protein stability index: 2.67 ± 0.12
san1∆
  protein stability index: 2.57 ± 0.21
ubr1∆
  protein stability index: 2.89 ± 0.077

## LNEAPFPEENIIDAKTR [MCD1]
doa10∆
  protein stability index: 3.12 ± 0.078
pdr5∆
  protein stability index: 3.17 ± 0.052
san1∆
  protein stability index: 3.136 ± 0.031
ubr1∆
  protein stability index: 3.27 ± 0.051

## LTTFANQVMMDRKIQGW [ARP7]
doa10∆
  protein stability index: 2.69 ± 0.081
pdr5∆
  protein stability index: 2.62 ± 0.059
san1∆
  protein stability index: 2.45 ± 0.076
ubr1∆
  protein stability index: 2.65 ± 0.049

## EYWAQRKKKFVLDVDPK [ISW2]
doa10∆
  protein stability index: 3.08 ± 0.094
pdr5∆
  protein stability index: 2.48 ± 0.26
san1∆
  protein stability index: 3.03 ± 0.21
ubr1∆
  protein stability index: 3.28 ± 0.21

## YYQRLRHMVDDKIHARA [RPB2]
pdr5∆
  protein stability index: 2.84 ± 0.28
san1∆
  protein stability index: 3.12 ± 0.12
ubr1∆
  protein stability index: 2.77 ± 0.15

## IVDPTAEQLKISLSVHT [RRP46]
doa10∆
  protein stability index: 1.64 ± 0.042
pdr5∆
  protein stability index: 1.81 ± 0.044
san1∆
  protein stability index: 2.34 ± 0.057
ubr1∆
  protein stability index: 2.04 ± 0.043

## LSRGDDEVTIRRTVGLK [SMC3]
doa10∆
  protein stability index: 3.17 ± 0.096
pdr5∆
  protein stability index: 2.73 ± 0.083
san1∆
  protein stability index: 2.77 ± 0.078
ubr1∆
  protein stability index: 2.55 ± 0.063

## SGQFYFRNPTPLLSNYA [RGR1]
doa10∆
  protein stability index: 1.36 ± 0.059
pdr5∆
  protein stability index: 1.54 ± 0.045
san1∆
  protein stability index: 1.8 ± 0.081
ubr1∆
  protein stability index: 1.89 ± 0.044

## NDLVKARDLLDDLEKTL [RPN9]
doa10∆
  protein stability index: 2.97 ± 0.092
pdr5∆
  protein stability index: 3.43 ± 0.097
san1∆
  protein stability index: 3.12 ± 0.091
ubr1∆
  protein stability index: 3.15 ± 0.087

## KELEPWDLQLQEKESQI [SMC4]
doa10∆
  protein stability index: 3.16 ± 0.12
pdr5∆
  protein stability index: 3.22 ± 0.13
san1∆
  protein stability index: 3.21 ± 0.12
ubr1∆
  protein stability index: 3.36 ± 0.12

## KVSSLKMFIQRILAMCV [YCS4]
doa10∆
  protein stability index: 2.64 ± 0.069
pdr5∆
  protein stability index: 2.48 ± 0.061
san1∆
  protein stability index: 2.23 ± 0.063
ubr1∆
  protein stability index: 2.88 ± 0.057

## AGILRGYDIFLNVVLDD [SMX2]
doa10∆
  protein stability index: 3.14 ± 0.055
pdr5∆
  protein stability index: 2.38 ± 0.06
san1∆
  protein stability index: 2.51 ± 0.084
ubr1∆
  protein stability index: 2.75 ± 0.051

## TEIISTLSNGLIASHYG [BRR2]
doa10∆
  protein stability index: 2.55 ± 0.076
pdr5∆
  protein stability index: 2.79 ± 0.096
san1∆
  protein stability index: 2.42 ± 0.1
ubr1∆
  protein stability index: 2.33 ± 0.062

## DNVSSQQMHEVRKELRG [RPP0]
doa10∆
  protein stability index: 2.4 ± 0.14
pdr5∆
  protein stability index: 2.45 ± 0.18
ubr1∆
  protein stability index: 2.82 ± 0.13

## GQFVTLGCTLVTLLANV [RMP1]
doa10∆
  protein stability index: 2.8 ± 0.11
pdr5∆
  protein stability index: 2.89 ± 0.11
san1∆
  protein stability index: 2.73 ± 0.1
ubr1∆
  protein stability index: 2.58 ± 0.048

## KVLEMKNLKDTASVEKA [YIL149C/MLP2]
doa10∆
  protein stability index: 2.95 ± 0.091
pdr5∆
  protein stability index: 3.26 ± 0.093
san1∆
  protein stability index: 3.08 ± 0.098
ubr1∆
  protein stability index: 3.21 ± 0.08

## KWEQTYKKPTGGIVTVR [FAS1]
doa10∆
  protein stability index: 3.07 ± 0.064
pdr5∆
  protein stability index: 2.04 ± 0.054
san1∆
  protein stability index: 2.2 ± 0.1
ubr1∆
  protein stability index: 2.37 ± 0.053

## PYKYRLREEIFIANEGV [RPL2A]
doa10∆
  protein stability index: 2.88 ± 0.096
pdr5∆
  protein stability index: 2.94 ± 0.085
san1∆
  protein stability index: 2.29 ± 0.067
ubr1∆
  protein stability index: 2.86 ± 0.054

## LLNEWSHNVDELLEHIE [RPN5]
doa10∆
  protein stability index: 2.57 ± 0.12
pdr5∆
  protein stability index: 1.9 ± 0.09
san1∆
  protein stability index: 2.13 ± 0.19
ubr1∆
  protein stability index: 1.58 ± 0.061

## YYKNFHNSVKRYQIMLP [SNM1]
doa10∆
  protein stability index: 1.12 ± 0.042
pdr5∆
  protein stability index: 1.36 ± 0.059
san1∆
  protein stability index: 1.33 ± 0.11
ubr1∆
  protein stability index: 1.47 ± 0.05

## LNTVLIADLDTEAEETS [RRP43]
doa10∆
  protein stability index: 3.11 ± 0.08
pdr5∆
  protein stability index: 2.87 ± 0.065
san1∆
  protein stability index: 3.04 ± 0.047
ubr1∆
  protein stability index: 3.21 ± 0.051

## CPEEFAESMCQELELPG [SNF5]
doa10∆
  protein stability index: 3.25 ± 0.073
pdr5∆
  protein stability index: 3 ± 0.074
san1∆
  protein stability index: 2.71 ± 0.07
ubr1∆
  protein stability index: 3.03 ± 0.075

## PSTNKKLSISNAASQQP [GAL11]
doa10∆
  protein stability index: 2.48 ± 0.084
pdr5∆
  protein stability index: 2.8 ± 0.066
san1∆
  protein stability index: 2.56 ± 0.072
ubr1∆
  protein stability index: 2.74 ± 0.075

## ADAQIQRETYDSNESDD [YLR335W/NUP2]
doa10∆
  protein stability index: 2.07 ± 0.22
pdr5∆
  protein stability index: 3.38 ± 0.21
ubr1∆
  protein stability index: 2.66 ± 0.21

## DLKESMVKGLLKSFTES [ECM29]
doa10∆
  protein stability index: 3.34 ± 0.26
pdr5∆
  protein stability index: 3 ± 0.19
san1∆
  protein stability index: 2.8 ± 0.1
ubr1∆
  protein stability index: 3.34 ± 0.096

## YCSGNIYDFHKMENLMR [YJL039C/NUP192]
doa10∆
  protein stability index: 2.77 ± 0.068
pdr5∆
  protein stability index: 2.79 ± 0.059
san1∆
  protein stability index: 2.52 ± 0.05
ubr1∆
  protein stability index: 2.73 ± 0.052

## DIPELSFFHQSNMQKSL [RPN3]
doa10∆
  protein stability index: 2.56 ± 0.065
pdr5∆
  protein stability index: 2.13 ± 0.067
san1∆
  protein stability index: 2.8 ± 0.068
ubr1∆
  protein stability index: 2.87 ± 0.045

## VFSESCSNESFASIPVS [SNU114]
doa10∆
  protein stability index: 2.98 ± 0.061
pdr5∆
  protein stability index: 3.29 ± 0.068
san1∆
  protein stability index: 2.88 ± 0.062
ubr1∆
  protein stability index: 3.12 ± 0.044

## KSDEGGSYLCTSSTPSP [YOR098C/NUP1]
doa10∆
  protein stability index: 3.16 ± 0.065
pdr5∆
  protein stability index: 3.09 ± 0.079
san1∆
  protein stability index: 2.7 ± 0.067
ubr1∆
  protein stability index: 3.07 ± 0.06

## TAEERVGRRAANLRVLN [RPL15A]
doa10∆
  protein stability index: 2.83 ± 0.12
pdr5∆
  protein stability index: 3.28 ± 0.14
san1∆
  protein stability index: 2.75 ± 0.14
ubr1∆
  protein stability index: 2.92 ± 0.11

## FHTSFSAVVGPNGSGKS [SMC4]
doa10∆
  protein stability index: 3.09 ± 0.089
pdr5∆
  protein stability index: 3.18 ± 0.084
san1∆
  protein stability index: 3.35 ± 0.085
ubr1∆
  protein stability index: 3.37 ± 0.12

## LSEFGIKKMLHLVWMKG [YCS4]
doa10∆
  protein stability index: 3.17 ± 0.17
pdr5∆
  protein stability index: 3.47 ± 0.11
san1∆
  protein stability index: 2.31 ± 0.15
ubr1∆
  protein stability index: 3.29 ± 0.17

## ARDLLTRDEKDPKRLFE [RPS9A]
doa10∆
  protein stability index: 3.37 ± 0.19
pdr5∆
  protein stability index: 3.6 ± 0.11
san1∆
  protein stability index: 3.14 ± 0.14
ubr1∆
  protein stability index: 3.62 ± 0.083

## KLLAISKFNNADDVFTG [RPC31]
doa10∆
  protein stability index: 3.03 ± 0.15
pdr5∆
  protein stability index: 2.9 ± 0.2
san1∆
  protein stability index: 2.92 ± 0.13
ubr1∆
  protein stability index: 2.57 ± 0.12

## LSHENNVMLEKIKDNKE [RPT5]
doa10∆
  protein stability index: 2.49 ± 0.063
pdr5∆
  protein stability index: 2.9 ± 0.054
san1∆
  protein stability index: 2.46 ± 0.054
ubr1∆
  protein stability index: 2.71 ± 0.045

## WSFDLPEMSNLYRLSTP [PRP8]
doa10∆
  protein stability index: 2.71 ± 0.049
pdr5∆
  protein stability index: 2.71 ± 0.04
san1∆
  protein stability index: 2.59 ± 0.038
ubr1∆
  protein stability index: 2.67 ± 0.043

## LIYGISDEERDDEDDEH [AAR2]
doa10∆
  protein stability index: 3.22 ± 0.11
pdr5∆
  protein stability index: 3.05 ± 0.097
san1∆
  protein stability index: 3.52 ± 0.066
ubr1∆
  protein stability index: 3.06 ± 0.099

## HRINMDKYHPGYFGKVG [RPL28]
doa10∆
  protein stability index: 3.4 ± 0.074
pdr5∆
  protein stability index: 3.41 ± 0.059
san1∆
  protein stability index: 3.24 ± 0.061
ubr1∆
  protein stability index: 3.24 ± 0.068

## VIVTDPRLDAQAIKEAS [RPS0B]
doa10∆
  protein stability index: 3.03 ± 0.096
pdr5∆
  protein stability index: 3.1 ± 0.083
san1∆
  protein stability index: 2.88 ± 0.072
ubr1∆
  protein stability index: 2.9 ± 0.075
